Data on 94 variants can be found in the supplement of paper PMC10567573.

B1: MNAT1 (parent)
chain: LAPIHKLEEALYEYQPLQIETYGP
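Note: lentivirally expressed fusions sorted by FACS into six bins by GFP to DsRed ratio, PSI derived from sequencing read proportions per bin multiplied by bin number.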

This data set covers variants of B1. The data set is described as follows: protein stability index of a GFP-peptide fusion (GPS, HEK-293T) (PSI 1-6); higher = more stable. The conditions noted are these: c terminus: a fixed tail appended.
In the case of LAPIHKLEEAAYEYQPLQIETYGP [L11A], the protein stability index was found to be 3.55.
Then LAPIHKLEEAFYEYQPLQIETYGP [L11F], with 2.07.
The figure for LAPIHKLEEAYYEYQPLQIETYGP [L11Y] is 2.42; for LAPIHKLEEAPYEYQPLQIETYGP [L11P] it is 3.17.
The figure for LAPIHKLEEAWYEYQPLQIETYGP [L11W] is 2.14.
On to LAPIHKLEEADYEYQPLQIETYGP [L11D], for which the protein stability index is 3.71.
Then LAPIHKLEEANYEYQPLQIETYGP [L11N], with 3.41; and LAPIHKLEEAGYEYQPLQIETYGP [L11G], with 3.48.
The figure for LAPIHKLEEAKYEYQPLQIETYGP [L11K] is 3.38.
The figure for LAPIHKLEEARYEYQPLQIETYGP [L11R] is 2.77.
With LAPIHKLEEAMYEYQPLQIETYGP [L11M], the protein stability index was found to be 2.34.
The figure for LAPIHKLEEATYEYQPLQIETYGP [L11T] is 2.57; for LAPIHKLEEAEYEYQPLQIETYGP [L11E] it is 3.57.
The figure for LAPIHKLEEAVYEYQPLQIETYGP [L11V] is 2.9.
Then LAPIHKLEEACYEYQPLQIETYGP [L11C], with 2.69; and LAPIHKLEEAHYEYQPLQIETYGP [L11H], with 2.54.
On to LAPIHKLEEAQYEYQPLQIETYGP [L11Q], for which the protein stability index came to 3.23.
For the variant LAPIHKLEEAIYEYQPLQIETYGP [L11I], the protein stability index was 2.3.
On to LAPIHKLEEDLYEYQPLQIETYGP [A10D], for which the protein stability index came out at 2.91.
Take LAPIHKLEELLYEYQPLQIETYGP [A10L]: the protein stability index worked out at 1.69.
With LAPIHKLEEKLYEYQPLQIETYGP [A10K], the protein stability index is 2.52.
Then LAPIHKLEEMLYEYQPLQIETYGP [A10M], with 1.45; and LAPIHKLEETLYEYQPLQIETYGP [A10T], with 1.79; and LAPIHKLEEHLYEYQPLQIETYGP [A10H], with 2.28.
LAPIHKLEESLYEYQPLQIETYGP [A10S]: the protein stability index was found to be 2.28.
The figure for LAPIHKLEEGLYEYQPLQIETYGP [A10G] is 2.88; for LAPIHKLEEVLYEYQPLQIETYGP [A10V] it is 2.71.
As for LAPIHKLEEELYEYQPLQIETYGP [A10E], the protein stability index is 3.04.
The figure for LAPIHKLEEPLYEYQPLQIETYGP [A10P] is 2.73; for LAPIHKLEEYLYEYQPLQIETYGP [A10Y] it is 2.35.
On to LAPIHKLEERLYEYQPLQIETYGP [A10R], for which the protein stability index is 2.05.
Take LAPIHKLEEQLYEYQPLQIETYGP [A10Q]: the protein stability index stood at 2.42.
Then LAPIHKLEENLYEYQPLQIETYGP [A10N], with 2.69; and LAPIHKLEEFLYEYQPLQIETYGP [A10F], with 2.45.
The figure for LAPIHKLEECLYEYQPLQIETYGP [A10C] is 2.09; for LAPIHKLEEWLYEYQPLQIETYGP [A10W] it is 1.8; for LAPIHKLEEILYEYQPLQIETYGP [A10I] it is 2.1.
The figure for LAPIHKQEEALYEYQPLQIETYGP [L7Q] is 2.97.
As to LAPIHKREEALYEYQPLQIETYGP [L7R], the protein stability index amounted to 3.06.
In the case of LAPIHKYEEALYEYQPLQIETYGP [L7Y], the protein stability index was 2.85.
Then LAPIHKCEEALYEYQPLQIETYGP [L7C], with 2.69; and LAPIHKHEEALYEYQPLQIETYGP [L7H], with 3.55.
Then LAPIHKMEEALYEYQPLQIETYGP [L7M], with 3.05; and LAPIHKTEEALYEYQPLQIETYGP [L7T], with 3.33.
The figure for LAPIHKNEEALYEYQPLQIETYGP [L7N] is 2.72; for LAPIHKKEEALYEYQPLQIETYGP [L7K] it is 3.54; for LAPIHKEEEALYEYQPLQIETYGP [L7E] it is 3.98.
For the variant LAPIHKSEEALYEYQPLQIETYGP [L7S], the protein stability index is 3.52.
The figure for LAPIHKAEEALYEYQPLQIETYGP [L7A] is 3.44.
The figure for LAPIHKVEEALYEYQPLQIETYGP [L7V] is 2.76; for LAPIHKDEEALYEYQPLQIETYGP [L7D] it is 4.04; for LAPIHKIEEALYEYQPLQIETYGP [L7I] it is 2.15.
Then LAPIHKGEEALYEYQPLQIETYGP [L7G], with 2.81.
Regarding LAPIHKFEEALYEYQPLQIETYGP [L7F], the protein stability index is 2.37.
The figure for LAPIHKWEEALYEYQPLQIETYGP [L7W] is 3.02.
Take LAPIHKPEEALYEYQPLQIETYGP [L7P]: the protein stability index was found to be 3.29.
Then LAPIVKLEEALYEYQPLQIETYGP [H5V], with 1.49; and LAPIMKLEEALYEYQPLQIETYGP [H5M], with 1.71.
As for LAPIYKLEEALYEYQPLQIETYGP [H5Y], the protein stability index was 1.61.
Turning to LAPIRKLEEALYEYQPLQIETYGP [H5R], the protein stability index was determined as 2.56.
Then LAPIPKLEEALYEYQPLQIETYGP [H5P], with 1.84.
Then LAPINKLEEALYEYQPLQIETYGP [H5N], with 2.21; and LAPIGKLEEALYEYQPLQIETYGP [H5G], with 1.96; and LAPICKLEEALYEYQPLQIETYGP [H5C], with 1.64.
Then LAPISKLEEALYEYQPLQIETYGP [H5S], with 2.11; and LAPIDKLEEALYEYQPLQIETYGP [H5D], with 2.33.
In the case of LAPIEKLEEALYEYQPLQIETYGP [H5E], the protein stability index turned out to be 1.92.
The figure for LAPIFKLEEALYEYQPLQIETYGP [H5F] is 2.03; for LAPITKLEEALYEYQPLQIETYGP [H5T] it is 1.59.
As to LAPIWKLEEALYEYQPLQIETYGP [H5W], the protein stability index was 2.34.
The figure for LAPILKLEEALYEYQPLQIETYGP [H5L] is 1.88; for LAPIIKLEEALYEYQPLQIETYGP [H5I] it is 1.71; for LAPIQKLEEALYEYQPLQIETYGP [H5Q] it is 2.92.
Then LAPIAKLEEALYEYQPLQIETYGP [H5A], with 2.17.
Then LAPIKKLEEALYEYQPLQIETYGP [H5K], with 2.62; and LAPIHFLEEALYEYQPLQIETYGP [K6F], with 2.75.
Consider LAPIHMLEEALYEYQPLQIETYGP [K6M], for which the protein stability index is 1.44.
With LAPIHNLEEALYEYQPLQIETYGP [K6N], the protein stability index turned out to be 2.27.
Consider LAPIHSLEEALYEYQPLQIETYGP [K6S], for which the protein stability index came out at 2.24.
The figure for LAPIHWLEEALYEYQPLQIETYGP [K6W] is 2.4.
With LAPIHRLEEALYEYQPLQIETYGP [K6R], the protein stability index was found to be 1.8.
For the variant LAPIHTLEEALYEYQPLQIETYGP [K6T], the protein stability index was determined as 1.84.
Consider LAPIHLLEEALYEYQPLQIETYGP [K6L], for which the protein stability index worked out at 2.29.
The figure for LAPIHHLEEALYEYQPLQIETYGP [K6H] is 1.97.
For LAPIHVLEEALYEYQPLQIETYGP [K6V], the protein stability index is 2.14.
Then LAPIHPLEEALYEYQPLQIETYGP [K6P], with 2.13.
For the variant LAPIHILEEALYEYQPLQIETYGP [K6I], the protein stability index stood at 1.4.
The figure for LAPIHDLEEALYEYQPLQIETYGP [K6D] is 1.94; for LAPIHQLEEALYEYQPLQIETYGP [K6Q] it is 2.24.
Then LAPIHYLEEALYEYQPLQIETYGP [K6Y], with 2.1; and LAPIHALEEALYEYQPLQIETYGP [K6A], with 1.97.
The figure for LAPIHCLEEALYEYQPLQIETYGP [K6C] is 1.64; for LAPIHGLEEALYEYQPLQIETYGP [K6G] it is 1.9.
With LAPIHELEEALYEYQPLQIETYGP [K6E], the protein stability index stood at 2.27.
